Assay in all cases: cell-based or functional assay
Assay [1] deals with HIV-1 Env of isolate 92TH021 (clade AE), on pseudovirus (HIV-1).
Assay [2] concerns the target HIV-1 envelope glycoprotein (Env) of isolate 92UG031, clade A (HIV-1).
For assay [3], the target named is HIV-1 Env of isolate MGRM-G-024 (HIV-1).
The target of assay [4] is HIV-1 Env of isolate MGRM-D-020 (clade D pseudovirus) (HIV-1).
In assay [5] the target is HIV-1 Env of pseudovirus MGRM-F1-020 (HIV-1).
The target in assay [6] is HIV-1 Env of isolate 92UG001 (clade D pseudovirus) (HIV-1).
The target in assay [7] is HIV-1 Env of isolate 93TH305, clade B, on pseudovirus (HIV-1).
Assay [8] addresses HIV-1 Env of pseudovirus MGRM-Chronic-B-018 (HIV-1).
The target in assay [9] is HIV-1 Env of isolate MGRM-D-018 (clade D), on pseudovirus (HIV-1).
In assay [10] the target is HIV-1 Env of pseudovirus CMU02 (clade CRF01_AE) (HIV-1).
The target in assay [11] is HIV-1 Env of isolate 92UG046 (clade D pseudovirus) (HIV-1).
The target in assay [12] is HIV-1 MGRM-C-026 Env (pseudovirus, clade C) (HIV-1).
The target of assay [13] is HIV-1 94UG103 Env (pseudovirus, clade A) (HIV-1).
For assay [14], the target named is HIV-1 Env of pseudovirus MGRM-G-009 (clade G) (HIV-1).
The target in assay [15] is HIV-1 Env of isolate APV_6, clade B, on pseudovirus (HIV-1).
Assay [16] deals with HIV-1 Env of isolate MGRM-AE-004 (subtype AE) (HIV-1).
For assay [17], the target named is HIV-1 APV17 Env (pseudovirus) (HIV-1).
Assay [18] deals with HIV-1 Env of isolate JRFL (subtype B) (HIV-1).
The target in assay [19] is HIV-1 Env of isolate MGRM-Chronic-B-020 (subtype B) (HIV-1).
Assay [20] has as its target HIV-1 Env of isolate TRJ04551.58 (subtype B) (HIV-1).
In assay [21] the target is HIV-1 envelope glycoprotein (Env) of isolate MGRM-C-020 (HIV-1).
The target of assay [22] is HIV-1 Env of isolate MG RM-D-014 (HIV-1).
Assay [23] deals with HIV-1 Env of isolate MGRM-A-007 (subtype A) (HIV-1).
For assay [24], the target named is HIV-1 Env of isolate 98IN022 (subtype C) (HIV-1).
For assay [25], the target named is HIV-1 Env of isolate MGRM-Chronic-B-008 (subtype B) (HIV-1).
The target in assay [26] is HIV-1 Env of isolate MGRM-Chronic-B-002 (subtype B) (HIV-1).
Assay [27] concerns the target aMLV envelope, on pseudovirus (negative control virus).
In assay [28] the target is HIV-1 Env of isolate MGRM-C-027 (HIV-1).
The target in assay [29] is HIV-1 Env of isolate MGRM-F1-017 (HIV-1).
Assay [30] concerns the target HIV-1 Env of isolate MGRM-C-026 (HIV-1).

A value given as a limit tells only on which side of the number the result lay.

Sequence of 4970_K22 (PGT-144) (antibody) (VH): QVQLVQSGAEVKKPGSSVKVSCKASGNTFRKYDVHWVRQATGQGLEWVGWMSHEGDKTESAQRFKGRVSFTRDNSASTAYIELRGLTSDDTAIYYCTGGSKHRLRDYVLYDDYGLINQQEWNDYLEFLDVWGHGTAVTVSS
Sequence of 4970_K22 (PGT-144) (antibody) (VL): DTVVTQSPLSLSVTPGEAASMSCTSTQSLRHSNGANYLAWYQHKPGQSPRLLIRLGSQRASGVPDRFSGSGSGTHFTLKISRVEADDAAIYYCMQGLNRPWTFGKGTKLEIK
Sequence of 4993_K13 (PGT-141) (antibody) (VH): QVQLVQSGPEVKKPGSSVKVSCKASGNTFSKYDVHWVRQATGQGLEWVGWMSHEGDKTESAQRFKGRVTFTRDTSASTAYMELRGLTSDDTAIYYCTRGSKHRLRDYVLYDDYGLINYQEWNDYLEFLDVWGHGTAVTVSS
Sequence of 4993_K13 (PGT-141) (antibody) (VL): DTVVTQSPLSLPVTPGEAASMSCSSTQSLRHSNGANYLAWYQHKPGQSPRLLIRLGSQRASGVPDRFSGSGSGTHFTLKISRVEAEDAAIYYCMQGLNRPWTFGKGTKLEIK
Sequence of 4980_N08 (PGT-143) (antibody) (VH): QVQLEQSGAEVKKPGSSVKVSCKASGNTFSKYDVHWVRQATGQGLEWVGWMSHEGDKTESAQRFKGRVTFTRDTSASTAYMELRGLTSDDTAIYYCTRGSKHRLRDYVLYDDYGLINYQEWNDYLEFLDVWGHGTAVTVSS
Sequence of 4980_N08 (PGT-143) (antibody) (VL): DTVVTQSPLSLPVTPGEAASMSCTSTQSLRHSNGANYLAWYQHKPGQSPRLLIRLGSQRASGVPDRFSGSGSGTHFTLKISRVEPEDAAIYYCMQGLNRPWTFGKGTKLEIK
Sequence of 5329_C19 (PGT-136) (antibody) (VH): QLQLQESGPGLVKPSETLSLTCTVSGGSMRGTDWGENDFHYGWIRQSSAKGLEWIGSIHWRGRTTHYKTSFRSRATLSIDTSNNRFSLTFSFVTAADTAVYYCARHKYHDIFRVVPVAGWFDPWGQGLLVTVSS
Sequence of 5329_C19 (PGT-136) (antibody) (VL): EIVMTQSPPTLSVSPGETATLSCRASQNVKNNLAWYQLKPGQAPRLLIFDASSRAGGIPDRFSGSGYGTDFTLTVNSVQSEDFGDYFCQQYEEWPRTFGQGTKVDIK
Sequence of 4995_E20 (PGT-142) (antibody) (VH): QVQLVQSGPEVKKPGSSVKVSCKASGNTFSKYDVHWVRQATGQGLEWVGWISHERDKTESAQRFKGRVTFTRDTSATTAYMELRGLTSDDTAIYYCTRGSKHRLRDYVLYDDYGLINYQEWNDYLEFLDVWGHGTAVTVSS
Sequence of 5345_I01 (PGT-137) (antibody) (VH): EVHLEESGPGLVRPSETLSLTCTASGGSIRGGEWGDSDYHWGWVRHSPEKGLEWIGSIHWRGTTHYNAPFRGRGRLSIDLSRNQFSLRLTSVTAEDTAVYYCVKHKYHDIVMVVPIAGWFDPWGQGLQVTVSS
Sequence of 5345_I01 (PGT-137) (antibody) (VL): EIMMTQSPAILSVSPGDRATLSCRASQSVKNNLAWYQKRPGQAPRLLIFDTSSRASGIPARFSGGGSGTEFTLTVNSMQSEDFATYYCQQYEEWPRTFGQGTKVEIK

In the case of 1496_C09 (PG9) (TCN-109) (antibody), the IC50, pseudovirus neutralization in assay [1] came out at 0.103 µg/mL; in assay [9], 0.0444 µg/mL. Moreover, the IC50 (µg/ml), pseudovirus neutralization amounted to 3.08 µg/mL in [2]; 2.03 µg/mL in assay [4]; 4.55 µg/mL in [5]; 41.8 µg/mL in assay [6]; 2.08 µg/mL in assay [7]; 0.16 µg/mL in assay [8]. Further, the IC50 (µg/ml), pseudovirus neutralization in [11] is 0.64 µg/mL; in assay [15] it was 0.12 µg/mL. In [3], this substance gave an IC50 (µg/mL), pseudovirus neutralization of 0.163 µg/mL. The IC50 (as a rule, the midpoint of a concentration-inhibition curve) turned out to be 7.69 µg/mL in assay [10] and 4.9 µg/mL in [14]. Besides, the IC50 neutralization in assay [12] was found to be 0.113 µg/mL; in assay [13], 0.31 µg/mL.

Consider 4970_K22 (PGT-144) (antibody), for which the IC50 (µg/mL), pseudovirus neutralization was found to be 0.104 µg/mL in [16] and 7.92 µg/mL in assay [3]. The same substance registered an IC50 (neutralizing activity, pseudovirus) in [17] of 5.12 µg/mL.

For the substance 4980_N08 (PGT-143) (antibody), the IC50 (µg/mL), pseudovirus neutralization in [16] amounted to 0.002 µg/mL; in assay [3] it was 0.048 µg/mL. In assay [17], this substance yielded an IC50 (neutralizing activity, pseudovirus) of 0.618 µg/mL.

Consider 4993_K13 (PGT-141) (antibody), for which the IC50 (µg/mL), pseudovirus neutralization in assay [16] is 0.001 µg/mL; in assay [3] it was 0.051 µg/mL. For the same substance, the IC50 (neutralizing activity, pseudovirus) in [17] came to 0.616 µg/mL.

4995_E20 (PGT-142) (antibody): the values for the IC50 (µg/mL), pseudovirus neutralization in assay [16] and in [3] were 0.001 µg/mL and 0.054 µg/mL, respectively. In assay [17], this substance yielded an IC50 (neutralizing activity, pseudovirus) of 0.393 µg/mL.

In the case of 5114_A19 (PGT-128) (antibody), the IC50 (µg/mL), pseudovirus neutralization in assay [16] is more than 50 µg/mL; in assay [21], 5.85 µg/mL; in assay [22] it was 0.013 µg/mL; in assay [23], more than 50 µg/mL. Further, the IC50 neutralization was found to be 0.007 µg/mL in [18]; 0.007 µg/mL in assay [19]; 0.019 µg/mL in [20]; 0.014 µg/mL in assay [24]; 0.143 µg/mL in [25]; 0.036 µg/mL in assay [26].

For 5136_H01 (PGT-131) (antibody), the IC50 (µg/mL), pseudovirus neutralization is more than 50 µg/mL in [16], more than 50 µg/mL in [21], 0.516 µg/mL in assay [22] and more than 50 µg/mL in [23]. Also, the IC50 neutralization in assay [18] was 0.454 µg/mL; in assay [19], 0.053 µg/mL; in [20] it was 0.088 µg/mL; in [24], more than 50 µg/mL; in assay [25] it was more than 50 µg/mL; in [26], more than 50 µg/mL.

For 5147_N06 (PGT-130) (antibody), the IC50, pseudovirus neutralization is 0.0082 µg/mL in assay [1], more than 10 µg/mL in assay [27] and 0.0378 µg/mL in [9]. The IC50 (µg/mL), pseudovirus neutralization in assay [16] is 2.43 µg/mL; in assay [21], more than 50 µg/mL; in assay [22] it was 0.061 µg/mL; in [23], more than 50 µg/mL. In addition, the IC50 neutralization in assay [18] was 0.046 µg/mL; in assay [19], 0.014 µg/mL; in [20] it was 0.023 µg/mL; in assay [12] it was 0.0173 µg/mL; in assay [13], 0.635 µg/mL; in [24], more than 50 µg/mL. In addition, the IC50 neutralization is 5.18 µg/mL in assay [25] and more than 50 µg/mL in assay [26]. In [17], this substance registered a Neutralization by PGT-130, IC50 of more than 10 µg/mL. The Neutralization by PGT-130, IC80 in assay [17] is more than 10 µg/mL. For the same substance, the Neutralization by PGT-130, IC90 in assay [17] was more than 10 µg/mL. In [17], this substance yielded a Neutralization by PGT-130, IC95 of more than 10 µg/mL. The neutralization IC50 (pseudovirus) in [17] was more than 10 µg/mL.

On to 5329_C19 (PGT-136) (antibody), for which the IC50, pseudovirus neutralization in [1], in [27] and in assay [9] was more than 10 µg/mL each time. Moreover, the IC50 (µg/mL), pseudovirus neutralization in [16], in assay [21], in [22] and in [23] was more than 50 µg/mL in each case. The IC50 neutralization was more than 50 µg/mL in [18]; more than 50 µg/mL in assay [19]; more than 50 µg/mL in [20]; 0.0065 µg/mL in assay [12]; more than 10 µg/mL in assay [13]; 13.6 µg/mL in [24]. Besides, the IC50 neutralization in assay [25] and in [26] was more than 50 µg/mL in each case. In addition, in assay [17], the IC50 (neutralizing activity, pseudovirus) is more than 10 µg/mL.

Consider 5343_B08 (PGT-135) (antibody), for which the IC50, pseudovirus neutralization was more than 10 µg/mL in assay [1], more than 10 µg/mL in [27] and 0.0433 µg/mL in assay [9]. The IC50 (µg/mL), pseudovirus neutralization was more than 50 µg/mL in assay [16], more than 50 µg/mL in [21], 2.21 µg/mL in assay [22] and more than 50 µg/mL in [23]. In addition, the IC50 neutralization in assay [18] is more than 50 µg/mL; in assay [19], 0.057 µg/mL; in [20], more than 50 µg/mL; in [12], 0.0123 µg/mL; in assay [13], more than 10 µg/mL; in assay [24], 0.014 µg/mL. In addition, the IC50 neutralization in [25] and in [26] was more than 50 µg/mL throughout. In addition, the IC50 (neutralizing activity, pseudovirus) in [17] was more than 10 µg/mL.

As to 5345_I01 (PGT-137) (antibody), the IC50 (µg/mL), pseudovirus neutralization in [16], in assay [21], in [22] and in [23] was more than 50 µg/mL throughout. Also, the IC50 neutralization was more than 50 µg/mL in assay [18]; 32.9 µg/mL in assay [19]; more than 50 µg/mL in [20]; 0.408 µg/mL in assay [24]; more than 50 µg/mL in assay [25]; more than 50 µg/mL in assay [26].

In turn, PGV04 (antibody) came in with an IC50 (µg/mL), pseudovirus neutralization in assay [3] of 0.033 µg/mL.

Regarding VRC01 (antibody), the IC50 (µg/mL), pseudovirus neutralization in assay [16] was found to be 0.187 µg/mL; in [3], 0.025 µg/mL; in assay [28], 0.125 µg/mL; in [30] it was 0.707 µg/mL. In addition, the IC50 turned out to be 0.332 µg/mL in assay [22] and 1.08 µg/mL in [29].

(Values after patent publication US20250320281A1.)
